These results are taken from patent US20200002439A1 (GENSUN BIOPHARMA, published 2020).

Assay [1] concerns the target T1, human PD-1 on transfected CHO-K1 cells (human, UniProt Q15116 25-288).
T1 construct: also called Human PD-1 transfected CHO-K1 cells
Kind of assay: cell-based blocking assay, flow cytometry: binding of FITC labeled human PD-L1-Fc to human PD-1 transfected CHO-K1 cells is blocked. As for the experimental part: Incubate for 15 mins before analysis with the iQue intellicyt system.
(In general: A flow cytometer gives signals particle by particle.)

The next assay has as its target human TGFβ1 (human, UniProt P01137 279-390). Nature of the assay: cell-based or functional assay.
For assay [2], the target named is T2, recombinant human VEGF 165 (human, UniProt P15692-4 27-191).
T2 construct: Bought protein
T2 sequence (P15692 other isoform, or with tags, fused parts or gaps limits assumed): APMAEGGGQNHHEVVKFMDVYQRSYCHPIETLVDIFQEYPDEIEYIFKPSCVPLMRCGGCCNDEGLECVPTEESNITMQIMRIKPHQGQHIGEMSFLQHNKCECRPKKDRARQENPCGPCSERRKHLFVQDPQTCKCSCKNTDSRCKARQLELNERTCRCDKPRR
Nature of the assay: blocking ELISA: VEGF-165 coated on the plate, binding of recombinant human VEGFR-2-hu IgG1-His Tag is blocked. How it is done: Briefly, 0.5 ug/ml of recombinant human VEGF-165 (R&D #293-VE-050/CF) in carbonate-bicarbonate buffer was coated to the wells in a 96-well assay plate and incubated overnight at 4° C. The wells were then washed 3 times with 0.05% Tween 20 in PBS (wash buffer), blocked with 1% BSA in PBS for 1 hour at room temperature, and washed 3 times with wash buffer. 50 μl 5-fold serially diluted antibodies were then added to wells in the plate and incubated for 30 minutes at room temperature. […] 100 μl anti-His tag HRP (1:10,000) was then added and the plates were incubated for 40 mins at room temperature and washed 3 times with wash buffer.

The target of assay [3] is T2, recombinant human VEGF 165. Kind of assay: blocking ELISA: VEGF 165 coated on the plate, binding of recombinant human VEGFR-2 is blocked. As for the experimental part: (§1) In brief, 96-well assay plates were coated with 0.5 ug/ml of recombinant human VEGF 165 (R&D) in carbonate-bicarbonate buffer (pH 9.6) at 4° C. overnight followed by blocking with 1% BSA/PBS for 1 hour at room temperature. Serially diluted antibodies were then added to the plate and incubated for 30 minutes at room temperature. […] Followed by washing with Wash Buffer, goat anti-mouse IgG-HRP were added to the plate and incubated for 1 hour at room temperature. […] IC50 values were determined as the mid-point in the activity curve.
For orientation: ELISA stands for enzyme-linked immunosorbent assay.

For assay [4], the target named is T2, recombinant human VEGF 165. The assay is described as above. How it is done:
as §1
This is another data set of the same source.

human TGFβ1, sequence (P01137 279-390 limits assumed): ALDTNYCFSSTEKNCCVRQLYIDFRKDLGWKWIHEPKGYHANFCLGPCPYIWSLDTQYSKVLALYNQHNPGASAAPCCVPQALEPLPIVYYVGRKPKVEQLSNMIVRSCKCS
T1 sequence (Q15116 25-288 limits assumed): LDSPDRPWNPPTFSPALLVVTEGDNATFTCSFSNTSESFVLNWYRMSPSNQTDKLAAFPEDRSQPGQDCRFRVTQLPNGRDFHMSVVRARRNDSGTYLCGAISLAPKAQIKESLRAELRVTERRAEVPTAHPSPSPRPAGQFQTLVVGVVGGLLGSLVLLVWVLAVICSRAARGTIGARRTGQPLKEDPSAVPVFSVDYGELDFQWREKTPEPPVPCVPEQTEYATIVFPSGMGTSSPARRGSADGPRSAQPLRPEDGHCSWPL

B1: TS-ZPB-3(2P17) (other)
heavy: QVQLVQSGAEVKKPGASVKVSCKASGYTFTSYYIHWVRQAPGQGLEWMGWIFPGSGNSKYNENFKGRVTLTADTSTSTVYMELSSLRSEDTAVYYCASETYDYGDYWGQGTLVTVSSASTKGPSVFPLAPCSRSTSESTAALGCLVKDYFPEPVTVSWNSGALTSGVHTFPAVLQSSGLYSLSSVVTVPSSSLGTKTYTCNVDHKPSNTKVDKRVESKYGPPCPPCPAPEFLGGPSVFLFPPKPKDTLMISRTPEVTCVVVDVSQEDPEVQFNWYVDGVEVHNAKTKPREEQFNSTYRVVSVLTVLHQDWLNGKEYKCKVSNKGLPSSIEKTISKAKGQPREPQVYTLPPSQEEMIPPHVQKSVNNDMIVTDNNGAVKFPQLCKFCDVRFSTCDNQKSCMSNCSITSICEKPQEVCVAVWRKNDENITLETVCHDPKLPYHDFILEDAASPKCIMKEKKKPGETFFMCSCSSDECNDNIIFSEEYNTSNPDTKNQVSLTCLVKGFYPSDIAVEWESNGQPENNYKTTPPVLDSDGSFFLYSRLTVDKSRWQEGNVFSCSVMHEALHNHYTQKSLSLSLGKGGGGSGGGGSGGGGSSDTGRPFVEMYSEIPEIIHMTEGRELVIPCRVTSPNITVTLKKFPLDTLIPDGKRIIWDSRKGFIISNATYKEIGLLTCEATVNGHLYKTNYLTHRQTNTIIDVVLSPSHGIELSVGEKLVLNCTARTELNVGIDFNWEYPSSKHQHKKLVNRDLKTQSGSEMKKFLSTLTIDGVTRSDQGLYTCAASSGLMTKKNSTFVRVHEK
light: DIQMTQSPSFLSASVGDRVTITCKASQNVGTNVAWYQQKPGKAPKALIYSASYRYSGVPSRFSGSGSGTEFTLTISSLQPEDFATYYCQQYYSYPYTFGQGTKLEIKRTVAAPSVFIFPPSDEQLKSGTASVVCLLNNFYPREAKVQWKVDNALQSGNSQESVTEQDSKDSTYSLSSTLTLSKADYEKHKVYACEVTHQGLSSPVTKSFNRGEC
The IC50 is the point on the concentration scale where inhibition reaches its midpoint. On to B1, for which the figures for the 50% inhibitory concentration (IC50) in assay [1] and in assay [2] were 2.39 nM and 7.71 nM, respectively. Also, the “IC50; luciferase signal of TGFβ/SMAD SBE Reporter-HEK293 cells stimulated with human TGFβ1” value with human TGFβ1 was 2.95 nM.

B2: aflibercept peptide (positive control) (other)
chain: SDTGRPFVEMYSEIPEIIHMTEGRELVIPCRVTSPNITVTLKKFPLDTLIPDGKRIIWDSRKGFIISNATYKEIGLLTCEATVNGHLYKTNYLTHRQTNTIIDVVLSPSHGIELSVGEKLVLNCTARTELNVGIDFNWEYPSSKHQHKKLVNRDLKTQSGSEMKKFLSTLTIDGVTRSDQGLYTCAASSGLMTKKNSTFVRVHEK
Regarding B2, the IC50 in assay [3] turned out to be 0.29 nM; in assay [4], 0.2 nM.
